In patent publication US20120237518A1 (Kyowa Kirin, published 2012):
Positions count from the first letter of the chain named. Each block holds one binder with its values, some of them ahead of it.

Tests used:
[1] = molecular target: T1, recombinant human Trop-2/Fc/His fusion protein (manufactured by R&D) (human, UniProt P09758 27-274, limits assumed); test: competition binding ELISA on immobilised Trop-2/Fc/His; cAR47A6.4.2 varied, competed antibody MOv16 fixed at 0.3 µg/ml [b]
T1 construct: Bought reagent; also called Trop-2/Fc/His chimeric protein; recombinant Trop-2
T1 sequence: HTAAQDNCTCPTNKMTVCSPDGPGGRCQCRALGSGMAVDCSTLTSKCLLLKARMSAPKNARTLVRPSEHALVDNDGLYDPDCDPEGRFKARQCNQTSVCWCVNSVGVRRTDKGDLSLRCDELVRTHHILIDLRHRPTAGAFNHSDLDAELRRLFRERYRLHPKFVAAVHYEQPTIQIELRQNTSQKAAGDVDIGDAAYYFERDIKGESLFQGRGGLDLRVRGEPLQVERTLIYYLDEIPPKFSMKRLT
Description: (§1) Into a 96-well ELISA plate (manufactured by Greiner), 2 μg/ml of a recombinant human Trop-2/Fc/His chimeric protein (manufactured by R&D) was dispensed at 50 μl/well, and allowed to stand at 4° C. overnight for immobilization. After washing the plate with PBS, BSA-PBS was added thereto at 100 μl/well and allowed to stand at room temperature for 1 hour for blocking the active groups.
(§2) After washing the plate with Tween-PBS, a peroxidase-labeled rabbit anti-human IgG antibody (manufactured by American Qualex) was added at 50 μl/well as the second antibody and allowed to stand at room temperature for 1 hour. After washing the plate with Tween-PBS, the ABTS [2,2-Azino-bis(3-Ethyl benzothiazol-6-Sulfonic Acid)ammonium)] substrate solution [1 mmol/l ABTS, 0.1 mol/l citric acid buffer (pH 4.2), 0.1% H₂O₂] was added at 50 μl/well for color development, and the chromogenic reaction was stopped by adding a 5% SDS (Sodium lauryl sulfate) solution at 50 μl/well. Thereafter, the value of the absorbance of OD415 nm was measured by a plate reader Emax (manufactured by Molecular Devices, LLC.).

[2] = molecular target: T2, Mutant A, Trop-2 extracellular region lacking only domain I, fused to FLAG tag and Fc (human); test: Western blot, cAR47A6.4.2 as primary antibody, Mutant A in lane 2, non-reducing and reducing SDS-PAGE [b]
T2 construct: Expressed in HEK293F
T2 sequence (chain, as listed by the source mutant limits assumed): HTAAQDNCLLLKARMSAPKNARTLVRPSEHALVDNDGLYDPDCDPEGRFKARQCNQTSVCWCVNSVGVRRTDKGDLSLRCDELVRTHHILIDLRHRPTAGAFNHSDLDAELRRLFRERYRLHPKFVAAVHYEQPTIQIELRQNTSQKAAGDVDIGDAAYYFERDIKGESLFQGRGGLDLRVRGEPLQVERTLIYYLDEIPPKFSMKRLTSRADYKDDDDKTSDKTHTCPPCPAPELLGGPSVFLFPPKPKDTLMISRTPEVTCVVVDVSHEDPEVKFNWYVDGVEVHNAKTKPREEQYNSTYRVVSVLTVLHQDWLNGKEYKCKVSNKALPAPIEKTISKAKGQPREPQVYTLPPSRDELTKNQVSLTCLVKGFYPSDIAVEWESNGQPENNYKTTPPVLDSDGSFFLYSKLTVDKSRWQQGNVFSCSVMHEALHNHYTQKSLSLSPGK
Description: (§3) Each protein of Trop-2/FLAG/Fc, Mutant A, Mutant B, or Mutant C prepared in this Example 2 was electrophoresed under reducing condition (treatment of samples in the presence of 10 mmol/l DTT at 95° C. for 5 minutes) or non-reducing condition (treatment of samples in the absence of DTT at room temperature for 10 minutes) by an SDS-PAGE method. The proteins in the gel were transferred to polyvinylidene difluoride (PVDF) membrane at 200 mA for 1 hour using a semi-dry method.
(§4) After the blocking of the PVDF membrane was carried out using PBS containing 5% BSA at room temperature for 1 hour, the PVDF membrane was soaked in the primary antibody solution which was prepared with TBST [an aqueous solution which was prepared by diluting Tris buffered saline (10× concentration) (pH 7.4) manufactured by Nakarai Tesque Inc.) ten-fold and further adding 0.1% concentration of 0.05% polyoxyethylene (20) sorbitan monolaurate (manufactured by Wako Pure Chemical Industries, Ltd., equivalent to ICI Inc.'s trademark Tween 20)] comprising 0.1% BSA to react for 1 hour at room temperature or overnight at 4° C.
(§5) Using the imaging system LAS4000 mini (manufactured by Fujifilm), the luminescence images were obtained. […]

[3] = molecular target: T3, Trop-2/FLAG/Fc, fusion protein of Trop-2 extracellular region, FLAG tag and Fc (human); test: Western blot, cAR47A6.4.2 as primary antibody, Trop-2/FLAG/Fc in lane 1, non-reducing and reducing SDS-PAGE [b]
T3 construct: Expressed in HEK293F; The encoding DNA carries a secretion signal
Description: as §3, §4, §5

[4] = molecular target: T1, recombinant human Trop-2/Fc/His fusion …; test: competition binding ELISA on immobilised Trop-2/Fc/His; cAR47A6.4.2 varied, competed antibody YY-01 fixed at 0.3 µg/ml [d]
Description: as §1, §2

[5] = molecular target: T4, Mutant B, Trop-2 extracellular region lacking domain I and domain II, fused to FLAG tag and Fc (human); test: Western blot, cAR47A6.4.2 as primary antibody, Mutant B in lane 3, non-reducing and reducing SDS-PAGE [b]
T4 construct: Expressed in HEK293F
T4 sequence (chain, as listed by the source mutant limits assumed): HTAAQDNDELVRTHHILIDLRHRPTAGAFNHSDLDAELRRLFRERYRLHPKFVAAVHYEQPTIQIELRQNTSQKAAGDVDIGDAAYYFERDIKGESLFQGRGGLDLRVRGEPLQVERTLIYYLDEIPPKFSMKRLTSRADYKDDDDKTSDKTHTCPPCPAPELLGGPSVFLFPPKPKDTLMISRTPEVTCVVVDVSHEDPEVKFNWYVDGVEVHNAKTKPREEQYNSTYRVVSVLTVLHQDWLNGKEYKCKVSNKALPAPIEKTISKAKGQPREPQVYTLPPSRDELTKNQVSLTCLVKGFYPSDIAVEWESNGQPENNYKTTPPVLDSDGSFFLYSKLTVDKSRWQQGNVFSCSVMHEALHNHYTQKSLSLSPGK
Description: as §3, §4, §5

[6] = molecular target: T1, recombinant human Trop-2/Fc/His fusion …; test: SPR (Biacore T100), Trop-2/Fc/His captured by Tetra-His antibody, antibody as analyte, Bivalent Analyte model, mean of duplicates
Description: (§6) All the operations described below were carried out using Biacore T100 (manufactured by GE Healthcare Bio-sciences). Tetra-His antibody (manufactured by Qiagen) was immobilized so as to be 12,000 RU (resonance unit) on the CM5 sensor chip (manufactured by GE Healthcare Bio-sciences) using Amine Coupling Kit (manufactured by GE Healthcare Bio-sciences). After recombinant Trop-2/Fc/His fusion proteins (manufactured by R&D) were allowed to be captured on the sensor chip, anti-Trop-2 antibodies which were diluted in five-fold steps, starting from a concentration of 5,000 ng/ml were flowed at 30 μL/min, followed by obtaining sensorgrams at each concentration.
(§7) Using the software for analysis accompanied with the equipment, the results were analyzed based on Bivalent Analyte model to obtain the binding rate constant and the dissociation rate constant for binding of each antibody to a recombinant human Trop-2/Fc/His fusion protein.
(1) Binding Activity of Anti-Trop-2 Human Chimeric Antibody to Recombinant Human Trop-2 using Biacore In the same manner described in Example 3, the affinity of KM4591 and cAR47A6.4.2-P to human Trop-2/Fc/His fusion proteins (manufactured by R&D) were measured. ka, kd, and KD (kd/ka) of each antibody are shown in Table 5 (the mean values of duplicate experiments).

[7] = molecular target: T3, Trop-2/FLAG/Fc, fusion protein of …; test: Western blot, KM4590 as primary antibody, Trop-2/FLAG/Fc in lane 1, non-reducing and reducing SDS-PAGE [a]
Description: as §3, §4, §5

[8] = molecular target: T1, recombinant human Trop-2/Fc/His fusion …; test: SPR (Biacore T100), Trop-2/Fc/His captured by Tetra-His antibody, antibody as analyte, Bivalent Analyte model, mean of duplicates; remark: listed apart in the source
Description: as §6, §7
(§8) In the same manner described in Example 3(2), the affinity of KM4591 and six kinds of KM4097 humanized antibodies (HV0LV0, HV3aLV0, HV4LV0, HV5LV0, HV10LV2 and HV10LV4) obtained in Example 8 to human Trop-2/Fc/His fusion proteins (manufactured by R&D) were evaluated.

[9] = molecular target: T1, recombinant human Trop-2/Fc/His fusion …; test: SPR (Biacore T100) on captured Trop-2/Fc/His; summary sentence of Table 6
Description: as §6, §7, §8

[10] = molecular target: T1, recombinant human Trop-2/Fc/His fusion …; test: SPR (Biacore T100), Trop-2/Fc/His captured by Tetra-His antibody on CM5 chip, antibody as analyte, Bivalent Analyte model, mean of duplicates
Description: as §6, §7

- IC50 (read off the curve) [1]: ~4 µg/mL
- binding result [2]: binds
- binding result [3]: binds
- IC50 (read off the curve) [4]: ~3 µg/mL
- binding result [5]: binds
B1: cAR47A6.4.2, human IgG1 chimeric antibody of anti-Trop-2 mouse monoclonal antibody AR47A6.4.2 (antibody, V domains shown)
VH: QIQLVQSGPELKKPGETVKISCKASGYTFTNYGMNWVKQAPGKGLKWMGWINTKTGEPTYAEEFKGRFAFSLETSASTAYLQINNLKKEDTATYFCGRGGYGSSYWYFDVWGAGTTVTVSS
VL: DIVMTQSHKFMSTSVGDRVSITCKASQDVSIAVAWYQQKPGQSPKVLIYSASYRYTGVPDRFTGSGSGTDFTFTISRVQAEDLAVYYCQQHYITPLTFGAGTKLELK
notes: Variable regions of AR47A6.4.2 with human IgG1 constant region (pKANTEX93), made in CHO/DG44 cells, fucose content 100%

- Kd [6]: 1.01 nM
- koff [6]: 0.000218 s⁻¹
- kon [6]: 221000 M⁻¹ s⁻¹
B2: cAR47A6.4.2-P, defucosylated human IgG1 chimeric antibody of AR47A6.4.2 (antibody, V domains shown)
VH: B1 VH
VL: B1 VL
modifications: No core fucose on the Fc N-glycan (made in FUT8 knockout CHO/DG44 cells); the letters do not carry this.

- Kd [8]: 0.37 nM
- koff [8]: 0.000116 s⁻¹
- kon [8]: 342000 M⁻¹ s⁻¹
- Kd [9]: ≤ 0.5 nM
B4: KM4097 humanized antibody HV10LV4 (antibody, V domains shown)
VH: QVQLVQSGPEVVKPGASVKISCKASGYTFTIYWLGWVKQAPGQGLEWIGNIFPGSAYINYNEKFKGKATLTADTSTSTAYMELSSLRSEDTAVYFCAREGSNSGYWGQGTLLTVSS
VL: DIVMTQSPDSLAVSAGERVTMNCKSSQSLLNSGNQQNYLAWYQQKPGQPPKLLIYGASTRESGVPDRFSGSGSGTDFTLTISSVQAEDVAVYYCQSDHIYPYTFGQGTKLEIK
notes: Expressed from pKANTEX93 (human constant regions) in FUT8 knockout CHO cells; no fucose attached

- Kd [8]: 0.49 nM
- koff [8]: 0.00019 s⁻¹
- kon [8]: 383000 M⁻¹ s⁻¹
- Kd [9]: ≤ 0.5 nM
B8: KM4097 humanized antibody HV5LV0 (antibody, V domains shown)
VH: B4 VH with P9A, V12K, I20V, L70I, L112V
VL: B4 VL with A15L, V19A, M21I, V84L
notes: as for B4

- Kd [8]: 0.42 nM
- koff [8]: 0.000126 s⁻¹
- kon [8]: 335000 M⁻¹ s⁻¹
- Kd [9]: ≤ 0.5 nM
B9: KM4097 humanized antibody HV4LV0 (antibody, V domains shown)
VH: B4 VH with V12K, I20V, K67R, A68V, L70I, L112V
VL: B4 VL with A15L, V19A, M21I, V84L
notes: as for B4

- Kd [8]: 0.3 nM
- koff [8]: 0.00016 s⁻¹
- kon [8]: 506000 M⁻¹ s⁻¹
- Kd [9]: ≤ 0.5 nM
B10: KM4097 humanized antibody HV3aLV0 (antibody, V domains shown)
VH: B4 VH with V12K, I20V, K38R, I48M, A68V, L70I, L112V
VL: B4 VL with A15L, V19A, M21I, V84L
notes: as for B4

More lines, now with the values behind:

B3: anti-Trop-2 human chimeric antibody KM4590 (antibody, human IgG1, V domains shown)
VH: QVQLQQSGPELVRPGTSVRISCKASGYTFTIYWLGWVKQRPGHGLEWIGNIFPGSAYINYNEKFKGKATLTADTSSSTAYMQLSSLTSEDSAVYFCAREGSNSGYWGQGTTLTVSS
VL: B4 VL with D9S, A12S, R18K, N22T, S69T, S82N, V89L, Q106G
notes: KM4097 variable regions joined to human IgG1 H chain constant region and human kappa L chain constant region (pKANTEX93); made in CHO/DG44 cells, fucose content 100%
- binding result [7]: binds

B5: anti-Trop-2 human chimeric antibody KM4591 (antibody, human IgG1, V domains shown)
VH: B3 VH
VL: B4 VL with D9S, A12S, R18K, N22T, S69T, S82N, V89L, Q106G
notes: Same polypeptides as KM4590 (human IgG1, kappa), made in FUT8 knockout CHO/DG44 cells, fucose content 0%
- Kd [8]: 0.36 nM
- koff [8]: 0.000113 s⁻¹
- kon [8]: 323000 M⁻¹ s⁻¹
- Kd [6]: 0.143 nM
- koff [6]: 5.8e-05 s⁻¹
- kon [6]: 416000 M⁻¹ s⁻¹

B6: anti-Trop-2 mouse monoclonal antibody KM4097 (antibody, V domains shown)
VH: B3 VH
VL: B4 VL with D9S, A12S, R18K, N22T, S69T, S82N, V89L, Q106G
- Kd [10]: 0.261 nM
- koff [10]: 0.000101 s⁻¹
- kon [10]: 389000 M⁻¹ s⁻¹

B7: KM4097 humanized antibody HV0LV0 (antibody, V domains shown)
VH: B4 VH with P9A, V12K, I20V, K38R, I48M, K67R, A68V, L70I, F95Y, L112V
VL: B4 VL with A15L, V19A, M21I, V84L
notes: as for B4
- Kd [8]: 0.53 nM
- koff [8]: 0.00016 s⁻¹
- kon [8]: 330000 M⁻¹ s⁻¹
- Kd [9]: ≤ 1 nM

B11: KM4097 humanized antibody HV10LV2 (antibody, V domains shown)
VH: B4 VH
VL: B4 VL with A15L, M21I
notes: as for B4
- Kd [8]: 0.4 nM
- koff [8]: 0.000148 s⁻¹
- kon [8]: 375000 M⁻¹ s⁻¹
- Kd [9]: ≤ 0.5 nM
